For 2 proteins, Km, kcat and kcat/Km results are on record in publication PMC9504171, “Revealing a New Family of D-2-Hydroxyglutarate Dehydrogenases in Escherichia coli and Pantoea ananatis Encoded by ydiJ” (Microorganisms, 2022).

Substrate in data set [1]: O=C(O)CC[C@@H](O)C(=O)O
The data set is described as follows: purified protein. It counts as biochemical, Escherichia coli. The following applies: 200 μM phenazine ethosulfate, 100 μM DCIP, 50 mM Tris-HCl pH 8.0, 25 °C.

Substrate in data set [2]: O=C(O)CC[C@@H](O)C(=O)O
The data set is described as follows: purified protein. It counts as biochemical, Pantoea ananatis. As to conditions: 200 μM phenazine ethosulfate, 100 μM DCIP, 50 mM Tris-HCl pH 7.5, 25 °C.

B1: D2HGDHEc (YdiJ, E. coli) (Escherichia coli K-12) (protein)
chain: MIPQISQAPGVVQLVLNFLQELEQQGFTGDTATSYADRLTMSTDNSIYQLLPDAVVFPRSTADVALIARLAAQERYSSLIFTPRGGGTGTNGQALNQGIIVDMSRHMNRIIEINPEEGWVRVEAGVIKDQLNQYLKPFGYFFAPELSTSNRATLGGMINTDASGQGSLVYGKTSDHVLGVRAVLLGGDILDTQPLPVELAETLGKSNTTIGRIYNTVYQRCRQQRQLIIDNFPKLNRFLTGYDLRHVFNDEMTEFDLTRILTGSEGTLAFITEARLDITRLPKVRRLVNVKYDSFDSALRNAPFMVEARALSVETVDSKVLNLAREDIVWHSVSELITDVPDQEMLGLNIVEFAGDDEALIDERVNALCARLDELIASHQAGVIGWQVCRELAGVERIYAMRKKAVGLLGNAKGAAKPIPFAEDTCVPPEHLADYIAEFRALLDSHGLSYGMFGHVDAGVLHVRPALDMCDPQQEILMKQISDDVVALTAKYGGLLWGEHGKGFRAEYSPAFFGEELFAELRKVKAAFDPHNRLNPGKICPPEGLDAPMMKVDAVKRGTFDRQIPIAVRQQWRGAMECNGNGLCFNFDARSPMCPSMKITQNRIHSPKGRATLVREWLRLLADRGVDPLKLEQELPESGVSLRTLIARTRNSWHANKGEYDFSHEVKEAMSGCLACKACSTQCPIKIDVPEFRSRFLQLYHTRYLRPLRDHLVATVESYAPLMARAPKTFNFFINQPLVRKLSEKHIGMVDLPLLSVPSLQQQMVGHRSANMTLEQLESLNAEQKARTVLVVQDPFTSYYDAQVVADFVRLVEKLGFQPVLLPFSPNGKAQHIKGFLNRFAKTAKKTADFLNRMAKLGMPMVGVDPALVLCYRDEYKLALGEERGEFNVLLANEWLASALESQPVATVSGESWYFFGHCTEVTALPGAPAQWAAIFARFGAKLENVSVGCCGMAGTYGHEAKNHENSLGIYELSWHQAMQRLPRNRCLATGYSCRSQVKRVEGTGVRHPVQALLEIIK
notes: 1018 residues; calculated 113,248 Da; homotetramer ~440 kDa
On to B1, for which, in the data set “purified protein [1]”, the Michaelis-Menten constant (Km) is 83 ± 5 µM, the kcat was found to be 13.9 s⁻¹ and the kcat/Km is 170000 M⁻¹ s⁻¹.

B2: D2HGDHPa (YdiJ, P. ananatis) (Pantoea ananatis AJ13355) (protein)
chain: MIPQISQAPGLIQRVLTFLETLKAQGFTGDTATSYADRLSLSTDNSIYQLLPDAVLFPRSTADVALIARLAGEAAFSSLVFTPRGGGTGTNGQSLNQGIIVDMSRHMNRILEINTEQRWVRVEAGVVKDQLNAYLKPFGFFFSPELSTSNRATLGGMINTDASGQGSLVYGKTSDHVLGLRAVLLGGDILDTRPVPTALAENLAQTPTPEGRIYQQVLTRCREHRELILEKFPKLNRFLTGYDLRHVFSDDMQTFDLTRLLCGAEGTLAFISEARLDITPLPKVRRVVNIKYDAFDSALRNAPLMVEAQALSVETVDSKVLNLAREDIVWHSVRELITAIPDKEMLGLNIVEFAGDDAGQIDRQITQLCARLDTLMTQQQGGVIGYQLCDDLDGIERIYNMRKKAVGLLGNAKGRAKPIPFVEDTAVPPEHLADYIVEFRALLDSHGLSYGMFGHVDAGVLHVRPALDMCDPHQEMMMKQISDEVVALTARYGGLLWGEHGKGFRAQYSPAFFGETLFNELRRIKAAFDPHNRLNPGKICTPFDSEAAMMQVDATKRGSYDRQIPLQVRETWRGALECNGNGLCFNFDARSPMCPSMKITRNRIHSPKGRATLTREWLRLLAEQGADPVMLEKKLPESSLSLRALISRMRNTWYANKGEYDFSHEVKEAMSGCLACKACSTQCPIKIDVPAFRSRFLQLYHTRYLRPLSDHLVAGVESYAPLMAKAPGVFNFFLKQPWATSFSKTHIGMVDLPLLSSPTLKQQLSGHPAMNMTLEQLEALSETQRAQKVLVVQDPFTSFYEAKLVHDFIRLIEKLGYQPVLLPFSPNGKAQHVKGFLQRFARTASKTADFLNRVAKLGMPMVGIDPATVLCYRDEYHQMLGEARGDFNVLLVHEWLHQALQEREVQVTSGEAWYLFAHCTEVTALPGTPGQWQAIFSRFGAKLENINVGCCGMAGTYGHESQNLENSLGIYALSWHPQLQKLPRQRCLATGFSCRSQVKRVEGNGMRHPLQALLELI
notes: 1018 residues; calculated 113,453 Da; homotetramer ~440 kDa
B2: in “purified protein [2]”, the Michaelis constant (Km) came to 208 ± 10 µM, the turnover number (kcat) came to 9.7 s⁻¹ and the kcat/Km was determined as 50000 M⁻¹ s⁻¹.
